Laboratory results as given in IntAct's records for PubMed 25910212.

B1: EF-hand domain-containing protein 1 (Homo sapiens), Q5JVL4 (parent)
chain: MVSNPVHGLPFLPGTSFKDSTKTAFHRSQTLSYRNGYAIVRRPTVGIGGDRLQFNQLSQAELDELASKAPVLTYGQPKQAPPADFIPAHVAFDKKVLKFDAYFQEDVPMSTEEQYRIRQVNIYYYLEDDSMSVIEPVVENSGILQGKLIKRQRLAKNDRGDHYHWKDLNRGINITIYGKTFRVVDCDQFTQVFLESQGIELNPPEKMALDPYTELRKQPLRKYVTPSDFDQLKQFLTFDKQVLRFYAIWDDTDSMYGECRTYIIHYYLMDDTVEIREVHERNDGRDPFPLLMNRQRVPKVLVENAKNFPQCVLEISDQEVLEWYTAKDFIVGKSLTILGRTFFIYDCDPFTRRYYKEKFGITDLPRIDVSKREPPPVKQELPPYNGFGLVEDSAQNCFALIPKAPKKDVIKMLVNDNKVLRYLAVLESPIPEDKDRRFVFSYFLATDMISIFEPPVRNSGIIGGKYLGRTKVVKPYSTVDNPVYYGPSDFFIGAVIEVFGHRFIILDTDEYVLKYMESNAAQYSPEALASIQNHVRKREAPAPEAESKQTEKDPGVQELEALIDTIQKQLKDHSCKDNIREAFQIYDKEASGYVDRDMFFKICESLNVPVDDSLVKELIRMCSHGEGKINYYNFVRAFSN
partner: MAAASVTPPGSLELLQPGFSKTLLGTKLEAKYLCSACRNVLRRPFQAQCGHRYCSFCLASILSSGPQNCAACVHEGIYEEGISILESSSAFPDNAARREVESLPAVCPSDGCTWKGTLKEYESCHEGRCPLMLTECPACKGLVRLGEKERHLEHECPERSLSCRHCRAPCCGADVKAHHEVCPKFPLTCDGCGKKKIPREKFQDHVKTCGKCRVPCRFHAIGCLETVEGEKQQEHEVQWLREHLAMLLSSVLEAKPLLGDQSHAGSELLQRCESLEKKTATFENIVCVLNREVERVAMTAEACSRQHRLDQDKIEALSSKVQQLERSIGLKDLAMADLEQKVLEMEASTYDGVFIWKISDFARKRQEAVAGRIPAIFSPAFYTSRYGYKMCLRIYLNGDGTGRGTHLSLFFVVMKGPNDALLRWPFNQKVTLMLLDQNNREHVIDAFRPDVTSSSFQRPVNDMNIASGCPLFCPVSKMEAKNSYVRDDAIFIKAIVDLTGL
B2: PiggyBac transposable element-derived protein 1 (Homo sapiens), Q96JS3 (parent)
chain: MYEALPGPAPENEDGLVKVKEEDPTWEQVCNSQEGSSHTQEICRLRFRHFCYQEAHGPQEALAQLRELCHQWLRPEMHTKEQIMELLVLEQFLTILPKELQPCVKTYPLESGEEAVTVLENLETGSGDTGQQASVYIQGQDMHPMVAEYQGVSLECQSLQLLPGITTLKCEPPQRPQGNPQEVSGPVPHGSAHLQEKNPRDKAVVPVFNPVRSQTLVKTEEETAQAVAAEKWSHLSLTRRNLCGNSAQETVMSLSPMTEEIVTKDRLFKAKQETSEEMEQSGEASGKPNRECAPQIPCSTPIATERTVAHLNTLKDRHPGDLWARMHISSLEYAAGDITRKGRKKDKARVSELLQGLSFSGDSDVEKDNEPEIQPAQKKLKVSCFPEKSWTKRDIKPNFPSWSALDSGLLNLKSEKLNPVELFELFFDDETFNLIVNETNNYASQKNVSLEVTVQEMRCVFGVLLLSGFMRHPRREMYWEVSDTDQNLVRDAIRRDRFELIFSNLHFADNGHLDQKDKFTKLRPLIKQMNKNFLLYAPLEEYYCFDKSMCECFDSDQFLNGKPIRIGYKIWCGTTTQGYLVWFEPYQEESTMKVDEDPDLGLGGNLVMNFADVLLERGQYPYHLCFDSFFTSVKLLSALKKKGVRATGTIRENRTEKCPLMNVEHMKKMKRGYFDFRIEENNEIILCRWYGDGIISLCSNAVGIEPVNEVSCCDADNEEIPQISQPSIVKVYDECKEGVAKMDQIISKYRVRIRSKKWYSILVSYMIDVAMNNAWQLHRACNPGASLDPLDFRRFVAHFYLEHNAHLSD
partner: B1 partner
B3: Inhibin alpha chain (Homo sapiens), P05111 (parent)
chain: MVLHLLLFLLLTPQGGHSCQGLELARELVLAKVRALFLDALGPPAVTREGGDPGVRRLPRRHALGGFTHRGSEPEEEEDVSQAILFPATDASCEDKSAARGLAQEAEEGLFRYMFRPSQHTRSRQVTSAQLWFHTGLDRQGTAASNSSEPLLGLLALSPGGPVAVPMSLGHAPPHWAVLHLATSALSLLTHPVLVLLLRCPLCTCSARPEATPFLVAHTRTRPPSGGERARRSTPLMSWPWSPSALRLLQRPPEEPAAHANCHRVALNISFQELGWERWIVYPPSFIFHYCHGGCGLHIPPNLSLPVPGAPPTPAQPYSLLPGAQPCCAALPGTMRPLHVRTTSDGGYSFKYETVPNLLTQHCACI
partner: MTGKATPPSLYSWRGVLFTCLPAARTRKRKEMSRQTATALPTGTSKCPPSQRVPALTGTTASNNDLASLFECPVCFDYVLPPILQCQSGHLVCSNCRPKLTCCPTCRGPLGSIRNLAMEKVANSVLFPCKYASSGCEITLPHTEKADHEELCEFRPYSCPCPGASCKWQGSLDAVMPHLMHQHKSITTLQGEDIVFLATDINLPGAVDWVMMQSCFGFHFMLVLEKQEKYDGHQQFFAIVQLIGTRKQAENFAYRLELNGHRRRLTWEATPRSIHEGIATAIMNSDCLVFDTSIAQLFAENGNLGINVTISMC
B4: U4/U6 small nuclear ribonucleoprotein Prp31 (Homo sapiens), Q8WWY3 (parent)
chain: MSLADELLADLEEAAEEEEGGSYGEEEEEPAIEDVQEETQLDLSGDSVKTIAKLWDSKMFAEIMMKIEEYISKQAKASEVMGPVEAAPEYRVIVDANNLTVEIENELNIIHKFIRDKYSKRFPELESLVPNALDYIRTVKELGNSLDKCKNNENLQQILTNATIMVVSVTASTTQGQQLSEEELERLEEACDMALELNASKHRIYEYVESRMSFIAPNLSIIIGASTAAKIMGVAGGLTNLSKMPACNIMLLGAQRKTLSGFSSTSVLPHTGYIYHSDIVQSLPPDLRRKAARLVAAKCTLAARVDSFHESTEGKVGYELKDEIERKFDKWQEPPPVKQVKPLPAPLDGQRKKRGGRRYRKMKERLGLTEIRKQANRMSFGEIEEDAYQEDLGFSLGHLGKSGSGRVRQTQVNEATKARISKTLQRTLQKQSVVYGGKSTIRDRSSGTASSVAFTPLQGLEIVNPQAAEKKVAEANQKYFSSMAEFLKVKGEKSGLMST
partner: B3 partner
B5: Transmembrane protein 43 (Homo sapiens), Q9BTV4 (parent)
chain: MAANYSSTSTRREHVKVKTSSQPGFLERLSETSGGMFVGLMAFLLSFYLIFTNEGRALKTATSLAEGLSLVVSPDSIHSVAPENEGRLVHIIGALRTSKLLSDPNYGVHLPAVKLRRHVEMYQWVETEESREYTEDGQVKKETRYSYNTEWRSEIINSKNFDREIGHKNPSAMAVESFMATAPFVQIGRFFLSSGLIDKVDNFKSLSLSKLEDPHVDIIRRGDFFYHSENPKYPEVGDLRVSFSYAGLSGDDPDLGPAHVVTVIARQRGDQLVPFSTKSGDTLLLLHHGDFSAEEVFHRELRSNSMKTWGLRAAGWMAMFMGLNLMTRILYTLVDWFPVFRDLVNIGLKAFAFCVATSLTLLTVAAGWLFYRPLWALLIAGLALVPILVARTRVPAKKLE
partner: B3 partner
B6: Plakophilin-2 (Homo sapiens), Q99959-2 (parent)
chain: MAAPGAPAEYGYIRTVLGQQILGQLDSSSLALPSEAKLKLAGSSGRGGQTVKSLRIQEQVQQTLARKGRSSVGNGNLHRTSSVPEYVYNLHLVENDFVGGRSPVPKTYDMLKAGTTATYEGRWGRGTAQYSSQKSVEERSLRHPLRRLEISPDSSPERAHYTHSDYQYSQRSQAGHTLHHQESRRAALLVPPRYARSEIVGVSRAGTTSRQRHFDTYHRQYQHGSVSDTVFDSIPANPALLTYPRPGTSRSMGNLLEKENYLTAGLTVGQVRPLVPLQPVTQNRASRSSWHQSSFHSTRTLREAGPSVAVDSSGRRAHLTVGQAAAGGSGNLLTERSTFTDSQLGNADMEMTLERAVSMLEADHMLPSRISAAATFIQHECFQKSEARKRVNQLRGILKLLQLLKVQNEDVQRAVCGALRNLVFEDNDNKLEVAELNGVPRLLQVLKQTRDLETKKQITGLLWNLSSNDKLKNLMITEALLTLTENIIIPFSGWPEGDYPKANGLLDFDIFYNVTGCLRNMSSAGADGRKAMRRCDGLIDSLVHYVRGTIADYQPDDKATENCVCILHNLSYQLEAELPEKYSQNIYIQNRNIQTDNNKSIGCFGSRSRKVKEQYQDVPMPEEKSNPKGVEWLWHSIVIRMYLSLIAKSVRNYTQEASLGALQNLTAGSGPMPTSVAQTVVQKESGLQHTRKMLHVGDPSVKKTAISLLRNLSRNLSLQNEIAKETLPDLVSIIPDTVPSTDLLIETTASACYTLNNIIQNSYQNARDLLNTGGIQKIMAISAGDAYASNKASKAASVLLYSLWAHTELHHAYKKAQFKKTDFVNSRTAKAYHSLKD
B7: Regulator of G-protein signaling 2 (Homo sapiens), P41220 (parent)
chain: MQSAMFLAVQHDCRPMDKSAGSGHKSEEKREKMKRTLLKDWKTRLSYFLQNSSTPGKPKTGKKSKQQAFIKPSPEEAQLWSEAFDELLASKYGLAAFRAFLKSEFCEENIEFWLACEDFKKTKSPQKLSSKARKIYTDFIEKEAPKEINIDFQTKTLIAQNIQEATSGCFTTAQKRVYSLMENNSYPRFLESEFYQDLCKKPQITTEPHAT
B8: ATP synthase mitochondrial F1 complex assembly factor 2 (Homo sapiens), Q8N5M1 (parent)
chain: MWRSCLRLRDGGRRLLNRPAGGPSASMSPGPTIPSPARAYAPPTERKRFYQNVSITQGEGGFEINLDHRKLKTPQAKLFTVPSEALAIAVATEWDSQQDTIKYYTMHLTTLCNTSLDNPTQRNKDQLIRAAVKFLDTDTICYRVEEPETLVELQRNEWDPIIEWAEKRYGVEISSSTSIMGPSIPAKTREVLVSHLASYNTWALQGIEFVAAQLKSMVLTLGLIDLRLTVEQAVLLSRLEEEYQIQKWGNIEWAHDYELQELRARTAAGTLFIHLCSESTTVKHKLLKE
partner: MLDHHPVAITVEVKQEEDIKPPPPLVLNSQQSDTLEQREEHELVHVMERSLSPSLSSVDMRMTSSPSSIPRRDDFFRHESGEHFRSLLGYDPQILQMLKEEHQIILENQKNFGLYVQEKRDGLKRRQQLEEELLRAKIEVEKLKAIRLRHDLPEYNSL
B9: Beta-crystallin A4 (Homo sapiens), P53673 (parent)
chain: MTLQCTKSAGPWKMVVWDEDGFQGRRHEFTAECPSVLELGFETVRSLKVLSGAWVGFEHAGFQGQQYILERGEYPSWDAWGGNTAYPAERLTSFRPAACANHRDSRLTIFEQENFLGKKGELSDDYPSLQAMGWEGNEVGSFHVHSGAWVCSQFPGYRGFQYVLECDHHSGDYKHFREWGSHAPTFQVQSIRRIQQ
partner: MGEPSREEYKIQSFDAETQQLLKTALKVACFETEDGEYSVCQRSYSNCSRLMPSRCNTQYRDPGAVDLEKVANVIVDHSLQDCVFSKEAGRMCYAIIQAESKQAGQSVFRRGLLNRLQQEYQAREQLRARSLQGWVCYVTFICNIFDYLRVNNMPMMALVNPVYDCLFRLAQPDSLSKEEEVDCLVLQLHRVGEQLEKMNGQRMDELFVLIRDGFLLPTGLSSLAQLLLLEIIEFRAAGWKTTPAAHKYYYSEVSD

Variants of: B1
Conditions: with traf2_human TRAF2, Q12933
A394S was tested, and the “effect of a mutation on the interaction” value was “disrupting interaction strength”. For M448T, the “effect of a mutation on the interaction” value was “with no effect”. T508R was tested, and the “effect of a mutation on the interaction” value was “with no effect”.

Variants of: B2
Conditions: with traf2_human TRAF2, Q12933
G244E was tested, and the “effect of a mutation on the interaction” value was “with no effect”. With Q248E the “effect of a mutation on the interaction” value was “with no effect”. For P256L, the “effect of a mutation on the interaction” value was “with no effect”. With I678V the “effect of a mutation on the interaction” value was “with no effect”. H806D was tested, and the “effect of a mutation on the interaction” value was “with no effect”.

Variants of: B3
Conditions: with SIAH1, Q8IUQ4-2
For P43A, the “effect of a mutation on the interaction” value was “with no effect”. A182D was tested, and the “effect of a mutation on the interaction” value was “with no effect”. A257T was tested, and the “effect of a mutation on the interaction” value was “with no effect”.

Variants of: B4
Conditions: with SIAH1, Q8IUQ4-2
With L107V the “effect of a mutation on the interaction” value was “with no effect”.

Variants of: B5
Conditions: with SIAH1, Q8IUQ4-2
In the case of S358L, the “effect of a mutation on the interaction” value is reported as “with no effect”.

Variants of: B6
Conditions: with MTUS2, Q5JR59-3
Target sequence in this assay (Q5JR59 other isoform, or with tags, fused parts or gaps): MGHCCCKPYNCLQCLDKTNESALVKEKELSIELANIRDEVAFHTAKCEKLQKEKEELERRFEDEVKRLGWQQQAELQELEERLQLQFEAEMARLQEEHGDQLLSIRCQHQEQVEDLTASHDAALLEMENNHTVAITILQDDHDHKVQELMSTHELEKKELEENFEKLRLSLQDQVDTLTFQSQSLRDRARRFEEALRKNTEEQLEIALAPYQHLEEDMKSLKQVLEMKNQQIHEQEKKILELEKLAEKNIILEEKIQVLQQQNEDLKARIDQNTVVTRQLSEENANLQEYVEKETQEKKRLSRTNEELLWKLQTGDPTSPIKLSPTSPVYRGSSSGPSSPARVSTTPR
With S140F the “effect of a mutation on the interaction” value was “disrupting interaction strength”. For A264V, the “effect of a mutation on the interaction” value was “with no effect”. S644P was tested, and the “effect of a mutation on the interaction” value was “disrupting interaction strength”.

Variants of: B7
Conditions: with MTUS2, Q5JR59-3
Target sequence in this assay (Q5JR59 other isoform, or with tags, fused parts or gaps): as above
In the case of Q2L, the “effect of a mutation on the interaction” value is reported as “with no effect”. For R44H, the “effect of a mutation on the interaction” value was “with no effect”. With Q2R the “effect of a mutation on the interaction” value was “with no effect”.

Variants of: B8
Conditions: with FSBP
W94R was tested, and the “effect of a mutation on the interaction” value was “disrupting interaction strength”.

Variants of: B9
Conditions: with MIF4GD
In the case of V36M, the “effect of a mutation on the interaction” value is reported as “disrupting interaction strength”.
